# ± gives the uncertainty stated by the source.
# Experiment: self-splicing fitness, log relative to wild type (ln ratio); higher = more splicing; Tetrahymena group I intron in knt gene, E. coli kanamycin selection, DiMSum; sequences stand for … in CUCUCU…GGAGGGAAAAGUUAUCAGGCAUGCACCUGGUAGCUAGUCUUUAAACCAAUAGAUUGCAUCGGUUUAAAAGGCAAGACCGUCAAAUUGCGGGAAAGGGGUCAACAGCCGUUCAGUACCAAGUCUCAGGGGAAACUUUGAGAUGGCCUUGCAAAGGGUAUGGUAAUAAGCUGACGGACAUGGUCCUAACCACGCAGCCAAGUCCUAAGUCAACAGAUCUUCUGUUGAUAUGGAUGCAGUUCACAGACUAAAUGUCGGUCGGGGAAGAUGUAUUCUUCUCAUAAGAUAUAGUCGGACCUCUCCUUAAUGGGAGCUAGCGGAUGAAGUGAUGCAACACUGGAGCCGCUGGGAACUAAUUUGUAUGCGAAAGUAUAUUGAUUAGUUUUGGAGUACUCGUGGUCG
# Procedure, shortened: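 A randomised library covering all eight P1ex-region intron nucleotides was built with the intron in the knt kanamycin-resistance gene on pET-22b(+) and held in E. coli BL21(DE3). Cells were grown overnight at 37°C or 30°C on LB agar, with or without 25 μg/mL kanamycin, plus 100 μg/mL carbenicillin, 50 μM IPTG and 0.2% rhamnose, and pooled colonies were amplicon-sequenced on an Illumina HiSeq 2500. DiMSum fitness is the error-weighted combination of wild-type-normalised replicate fold changes, kanamycin versus none.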
Sequence,self-splicing fitness (ln) (30 °C),self-splicing fitness (ln) (37 °C)
CAAAAGCAAUAUUACGUUCG,-0.43 ± 0.051,0.246 ± 0.066
GAGUAGCAAUAUUACGUUCC,-1.88 ± 0.46,–
AAUUAGCAAUAUUACGCGGC,-2.28 ± 0.39,-1.32 ± 0.3
CGCUAGCAAUAUUACGGCAA,-0.889 ± 0.099,-0.0297 ± 0.11
UCUGAGCAAUAUUACGGUAU,-2.41 ± 0.18,-2.5 ± 0.44
AUGGAGCAAUAUUACGAUUG,-2.3 ± 0.25,-3.12 ± 0.33
GGGAAGCAAUAUUACGGAGU,-2.86 ± 0.12,-2.05 ± 0.16
AUGGAGCAAUAUUACGCGUA,-2.62 ± 0.44,-2.09 ± 0.31
GUGUAGCAAUAUUACGCGUU,–,-0.621 ± 0.17
UAGCAGCAAUAUUACGUGUC,-3.39 ± 0.15,-2.2 ± 0.12
UGUGAGCAAUAUUACGGUCA,-0.959 ± 0.056,-0.333 ± 0.069
CGGCAGCAAUAUUACGCCUG,-0.88 ± 0.24,-1.89 ± 0.23
UCAGAGCAAUAUUACGGGAC,-3.74 ± 0.29,-1.6 ± 0.33
AUACAGCAAUAUUACGUGAA,-2.19 ± 0.077,-1.08 ± 0.076
CGUCAGCAAUAUUACGGAUG,-3.63 ± 0.2,-1.74 ± 0.14
UCCUAGCAAUAUUACGGACC,-2.64 ± 0.27,–
CUAGAGCAAUAUUACGGCCU,-2.72 ± 0.44,-1.69 ± 0.44
UAGUAGCAAUAUUACGAAAU,-2.89 ± 0.33,–
GCUGAGCAAUAUUACGAGGA,-2.31 ± 0.16,-2.48 ± 0.18
UUCUAGCAAUAUUACGUGGA,-1.73 ± 0.31,-1.15 ± 0.18
ACAUAGCAAUAUUACGGAGC,–,-0.767 ± 0.15
UCGCAGCAAUAUUACGGUCC,–,-1.82 ± 0.24
CAGGAGCAAUAUUACGAAUG,-3.6 ± 0.2,-2.76 ± 0.22
UCGUAGCAAUAUUACGCGUA,-1.16 ± 0.14,-0.895 ± 0.11
UCUAAGCAAUAUUACGGGUU,-3.97 ± 0.17,-2.93 ± 0.19
UGGAAGCAAUAUUACGCUUG,-3.54 ± 0.26,-2.53 ± 0.29
GGGAAGCAAUAUUACGUAGC,-1.84 ± 0.18,-1.37 ± 0.16

Sequence,self-splicing fitness (ln) (30 °C),self-splicing fitness (ln) (37 °C)
GGGUAGCAAUAUUACGAGUA,–,0.307 ± 0.22
UCCUAGCAAUAUUACGAUGU,-1.49 ± 0.06,-0.553 ± 0.079
GGAAAGCAAUAUUACGGAGC,-1.43 ± 0.17,-1.49 ± 0.2
CCUGAGCAAUAUUACGAAGU,–,-0.825 ± 0.19
CCUAAGCAAUAUUACGGCUC,-3.13 ± 0.23,-1.56 ± 0.21
UAAGAGCAAUAUUACGCAGC,-3.16 ± 0.22,-3.49 ± 0.33
UUCGAGCAAUAUUACGAACA,-2.9 ± 0.28,-1.73 ± 0.18
GAGGAGCAAUAUUACGGGCG,-2.68 ± 0.32,-1.56 ± 0.24
CGGAAGCAAUAUUACGCACG,–,0.981 ± 0.23
GUAGAGCAAUAUUACGGUGU,-1.82 ± 0.081,-1.23 ± 0.099
UGUUAGCAAUAUUACGAUUA,-0.127 ± 0.093,0.424 ± 0.11
AGCUAGCAAUAUUACGUGAC,-3.94 ± 0.18,-1.26 ± 0.13
GGUGAGCAAUAUUACGACCU,-2.12 ± 0.26,-2.52 ± 0.49
UGCCAGCAAUAUUACGAUAU,-4.12 ± 0.28,-1.74 ± 0.16
UCACAGCAAUAUUACGAUCG,-0.61 ± 0.08,-0.076 ± 0.11
GGCGAGCAAUAUUACGAGAA,–,-2.57 ± 0.41
CUUCAGCAAUAUUACGUGCU,-3.07 ± 0.12,-2.6 ± 0.13
UAUUAGCAAUAUUACGUGCG,-0.929 ± 0.079,-0.636 ± 0.12
AGGCAGCAAUAUUACGACGU,-0.0258 ± 0.11,0.539 ± 0.087
AAGCAGCAAUAUUACGGUUA,-0.142 ± 0.072,0.0491 ± 0.087
CCCUAGCAAUAUUACGUAUU,-3.8 ± 0.17,-2.92 ± 0.18
CUCAAGCAAUAUUACGUAAU,-3.29 ± 0.12,-2.22 ± 0.1
GCGAAGCAAUAUUACGGUCC,-3.6 ± 0.25,-2.27 ± 0.31
UGGAAGCAAUAUUACGCGCG,0.222 ± 0.15,0.698 ± 0.15
CUGCAGCAAUAUUACGGACA,–,-1.44 ± 0.28
CCUCAGCAAUAUUACGUUAC,-3.54 ± 0.19,-3.7 ± 0.36
GAUAAGCAAUAUUACGCUUG,-2.05 ± 0.1,-0.952 ± 0.1

Sequence,self-splicing fitness (ln) (30 °C),self-splicing fitness (ln) (37 °C)
AUCAAGCAAUAUUACGCUCC,-0.122 ± 0.16,-1.04 ± 0.17
AAAUAGCAAUAUUACGACGG,-0.995 ± 0.1,-0.783 ± 0.16
AGUUAGCAAUAUUACGAUUA,–,-0.435 ± 0.33
AUGAAGCAAUAUUACGGUCC,-0.305 ± 0.12,0.363 ± 0.14
CGUUAGCAAUAUUACGCGGA,-2.82 ± 0.47,-1.31 ± 0.17
GAUGAGCAAUAUUACGGGAA,-3.01 ± 0.23,-3.7 ± 0.42
AAGUAGCAAUAUUACGUUCA,-0.86 ± 0.081,0.409 ± 0.096
AGGCAGCAAUAUUACGGGGA,–,-3.03 ± 0.23
ACACAGCAAUAUUACGCUAC,-3.73 ± 0.35,-2.63 ± 0.26
CACGAGCAAUAUUACGGCUG,-1.39 ± 0.089,-0.237 ± 0.11
UGCGAGCAAUAUUACGGAAC,–,-2.25 ± 0.39
GACCAGCAAUAUUACGGCUC,-0.856 ± 0.13,0.658 ± 0.15
AAACAGCAAUAUUACGGAGC,-3.7 ± 0.28,-2.75 ± 0.22
GCUUAGCAAUAUUACGGGGG,-1.53 ± 0.11,-1.54 ± 0.15
GCCGAGCAAUAUUACGCCGG,-3.21 ± 0.3,-2.08 ± 0.38
ACGUAGCAAUAUUACGAACG,-1 ± 0.082,-0.927 ± 0.12
AUCUAGCAAUAUUACGAUGC,-1.74 ± 0.13,-1.33 ± 0.16
CUCUAGCAAUAUUACGCGUG,-3.84 ± 0.22,-3.01 ± 0.19
ACUCAGCAAUAUUACGUUAU,-2.29 ± 0.073,-1.27 ± 0.086
CUUGAGCAAUAUUACGCACU,-3.64 ± 0.39,-1.9 ± 0.44
GGGGAGCAAUAUUACGCCGA,-2.05 ± 0.5,–
CAAGAGCAAUAUUACGGAGU,-3.12 ± 0.18,-2.55 ± 0.22
AUACAGCAAUAUUACGUAUC,-4.19 ± 0.21,-2.6 ± 0.17
GCAUAGCAAUAUUACGAGCC,-2.61 ± 0.2,-2.49 ± 0.33
AGUAAGCAAUAUUACGCGCA,-1.02 ± 0.16,0.0785 ± 0.16
GGGAAGCAAUAUUACGGGAA,-1.55 ± 0.45,-1.14 ± 0.31

# Reference: the supplement of paper PMC7877785
